IntAct's records for PubMed 35512704

B1: Mothers against decapentaplegic homolog 4 (Homo sapiens), Q13485 (parent)
chain: MDNMSITNTPTSNDACLSIVHSLMCHRQGGESETFAKRAIESLVKKLKEKKDELDSLITAITTNGAHPSKCVTIQRTLDGRLQVAGRKGFPHVIYARLWRWPDLHKNELKHVKYCQYAFDLKCDSVCVNPYHYERVVSPGIDLSGLTLQSNAPSSMMVKDEYVHDFEGQPSLSTEGHSIQTIQHPPSNRASTETYSTPALLAPSESNATSTANFPNIPVASTSQPASILGGSHSEGLLQIASGPQPGQQQNGFTGQPATYHHNSTTTWTGSRTAPYTPNLPHHQNGHLQHHPPMPPHPGHYWPVHNELAFQPPISNHPAPEYWCSIAYFEMDVQVGETFKVPSSCPIVTVDGYVDPSGGDRFCLGQLSNVHRTEAIERARLHIGKGVQLECKGEGDVWVRCLSDHAVFVQSYYLDREAGRAPGDAVHKIYPSAYIKVFDLRQCHRQMQQQAATAQAAAAAQAAAVAGNIPGPGSVGGIAPAISLSAAAGIGVDDLRRLCILRMSFVKGWGPDYPRQSIKETPCWIEIHLHRALQLLDEVLHTMPIADPQPLD
partner: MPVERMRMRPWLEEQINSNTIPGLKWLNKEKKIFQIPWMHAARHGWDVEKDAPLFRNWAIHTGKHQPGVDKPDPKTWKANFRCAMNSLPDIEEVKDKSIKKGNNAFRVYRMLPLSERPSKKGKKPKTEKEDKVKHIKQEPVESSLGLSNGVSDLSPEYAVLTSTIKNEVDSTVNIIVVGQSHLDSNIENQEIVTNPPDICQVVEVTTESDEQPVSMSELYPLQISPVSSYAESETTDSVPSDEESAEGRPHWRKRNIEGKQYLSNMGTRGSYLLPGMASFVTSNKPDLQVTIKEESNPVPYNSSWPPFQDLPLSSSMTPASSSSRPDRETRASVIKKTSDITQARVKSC
B2: Mothers against decapentaplegic homolog 4 (Homo sapiens), Q13485 (parent)
chain: B1 chain
partner: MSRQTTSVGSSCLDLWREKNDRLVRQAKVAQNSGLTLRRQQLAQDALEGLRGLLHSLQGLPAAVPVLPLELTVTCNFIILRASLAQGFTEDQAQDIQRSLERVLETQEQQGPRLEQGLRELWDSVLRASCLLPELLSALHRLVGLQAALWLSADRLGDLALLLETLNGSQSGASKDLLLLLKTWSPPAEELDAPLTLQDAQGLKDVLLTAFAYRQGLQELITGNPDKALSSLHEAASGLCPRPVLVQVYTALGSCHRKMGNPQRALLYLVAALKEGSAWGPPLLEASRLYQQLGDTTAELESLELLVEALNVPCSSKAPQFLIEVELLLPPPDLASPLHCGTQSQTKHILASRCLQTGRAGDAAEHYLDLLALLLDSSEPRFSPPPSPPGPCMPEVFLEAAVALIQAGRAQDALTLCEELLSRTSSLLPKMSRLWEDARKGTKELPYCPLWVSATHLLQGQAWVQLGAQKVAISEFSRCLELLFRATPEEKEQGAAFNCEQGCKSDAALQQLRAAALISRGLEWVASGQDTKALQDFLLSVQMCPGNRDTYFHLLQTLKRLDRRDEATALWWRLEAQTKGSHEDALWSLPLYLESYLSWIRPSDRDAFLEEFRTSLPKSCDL
B3: Mothers against decapentaplegic homolog 4 (Homo sapiens), Q13485 (parent)
chain: B1 chain
partner: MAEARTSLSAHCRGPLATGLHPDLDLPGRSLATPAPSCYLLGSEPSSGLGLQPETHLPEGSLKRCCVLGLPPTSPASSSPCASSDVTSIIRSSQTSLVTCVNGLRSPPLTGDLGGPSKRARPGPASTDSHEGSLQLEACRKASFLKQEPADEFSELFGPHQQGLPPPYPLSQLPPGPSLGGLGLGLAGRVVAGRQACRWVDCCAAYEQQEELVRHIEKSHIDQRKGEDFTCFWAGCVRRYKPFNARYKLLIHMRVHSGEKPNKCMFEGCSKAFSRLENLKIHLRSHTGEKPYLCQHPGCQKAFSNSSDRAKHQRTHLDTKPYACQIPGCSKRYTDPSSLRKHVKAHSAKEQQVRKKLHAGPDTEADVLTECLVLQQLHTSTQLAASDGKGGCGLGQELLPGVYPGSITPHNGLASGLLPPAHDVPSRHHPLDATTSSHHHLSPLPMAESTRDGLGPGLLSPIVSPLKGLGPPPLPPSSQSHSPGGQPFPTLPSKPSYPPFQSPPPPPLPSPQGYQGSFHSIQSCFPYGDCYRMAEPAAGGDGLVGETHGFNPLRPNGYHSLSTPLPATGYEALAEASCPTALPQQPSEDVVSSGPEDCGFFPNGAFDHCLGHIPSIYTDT
B4: Mothers against decapentaplegic homolog 4 (Homo sapiens), Q13485 (parent)
chain: B1 chain
partner: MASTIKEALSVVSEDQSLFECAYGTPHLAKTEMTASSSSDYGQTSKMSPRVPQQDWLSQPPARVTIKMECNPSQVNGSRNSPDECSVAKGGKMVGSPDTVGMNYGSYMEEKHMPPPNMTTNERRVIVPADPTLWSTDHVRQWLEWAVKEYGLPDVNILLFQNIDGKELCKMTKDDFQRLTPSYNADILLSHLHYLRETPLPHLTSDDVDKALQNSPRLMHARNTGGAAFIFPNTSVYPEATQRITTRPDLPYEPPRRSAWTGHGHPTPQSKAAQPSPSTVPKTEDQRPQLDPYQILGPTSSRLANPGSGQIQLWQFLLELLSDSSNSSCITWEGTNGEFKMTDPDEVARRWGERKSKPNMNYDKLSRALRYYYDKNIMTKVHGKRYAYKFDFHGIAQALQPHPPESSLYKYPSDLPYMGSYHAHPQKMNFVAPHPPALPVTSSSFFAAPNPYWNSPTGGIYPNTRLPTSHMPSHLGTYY
B5: Mothers against decapentaplegic homolog 4 (Homo sapiens), Q13485 (parent)
chain: B1 chain
partner: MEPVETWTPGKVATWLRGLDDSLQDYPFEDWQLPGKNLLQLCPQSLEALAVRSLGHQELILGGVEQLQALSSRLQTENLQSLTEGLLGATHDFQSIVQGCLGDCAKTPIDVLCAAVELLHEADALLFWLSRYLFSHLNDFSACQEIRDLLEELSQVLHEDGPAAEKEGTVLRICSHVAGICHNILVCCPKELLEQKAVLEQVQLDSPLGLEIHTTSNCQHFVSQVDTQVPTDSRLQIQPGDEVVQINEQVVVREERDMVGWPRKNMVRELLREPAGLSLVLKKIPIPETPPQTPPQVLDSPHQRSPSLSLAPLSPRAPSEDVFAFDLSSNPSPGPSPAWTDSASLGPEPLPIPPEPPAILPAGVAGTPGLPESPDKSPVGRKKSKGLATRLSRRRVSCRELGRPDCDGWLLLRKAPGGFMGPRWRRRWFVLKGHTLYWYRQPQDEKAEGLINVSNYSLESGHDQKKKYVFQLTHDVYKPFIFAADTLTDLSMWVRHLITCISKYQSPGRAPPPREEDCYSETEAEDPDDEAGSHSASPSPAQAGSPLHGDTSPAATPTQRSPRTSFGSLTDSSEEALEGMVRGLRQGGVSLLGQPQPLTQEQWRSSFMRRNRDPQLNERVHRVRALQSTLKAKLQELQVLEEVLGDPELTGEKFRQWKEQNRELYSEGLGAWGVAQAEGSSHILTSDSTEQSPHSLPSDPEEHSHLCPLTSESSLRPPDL
B6: Mothers against decapentaplegic homolog 4 (Homo sapiens), Q13485 (parent)
chain: B1 chain
partner: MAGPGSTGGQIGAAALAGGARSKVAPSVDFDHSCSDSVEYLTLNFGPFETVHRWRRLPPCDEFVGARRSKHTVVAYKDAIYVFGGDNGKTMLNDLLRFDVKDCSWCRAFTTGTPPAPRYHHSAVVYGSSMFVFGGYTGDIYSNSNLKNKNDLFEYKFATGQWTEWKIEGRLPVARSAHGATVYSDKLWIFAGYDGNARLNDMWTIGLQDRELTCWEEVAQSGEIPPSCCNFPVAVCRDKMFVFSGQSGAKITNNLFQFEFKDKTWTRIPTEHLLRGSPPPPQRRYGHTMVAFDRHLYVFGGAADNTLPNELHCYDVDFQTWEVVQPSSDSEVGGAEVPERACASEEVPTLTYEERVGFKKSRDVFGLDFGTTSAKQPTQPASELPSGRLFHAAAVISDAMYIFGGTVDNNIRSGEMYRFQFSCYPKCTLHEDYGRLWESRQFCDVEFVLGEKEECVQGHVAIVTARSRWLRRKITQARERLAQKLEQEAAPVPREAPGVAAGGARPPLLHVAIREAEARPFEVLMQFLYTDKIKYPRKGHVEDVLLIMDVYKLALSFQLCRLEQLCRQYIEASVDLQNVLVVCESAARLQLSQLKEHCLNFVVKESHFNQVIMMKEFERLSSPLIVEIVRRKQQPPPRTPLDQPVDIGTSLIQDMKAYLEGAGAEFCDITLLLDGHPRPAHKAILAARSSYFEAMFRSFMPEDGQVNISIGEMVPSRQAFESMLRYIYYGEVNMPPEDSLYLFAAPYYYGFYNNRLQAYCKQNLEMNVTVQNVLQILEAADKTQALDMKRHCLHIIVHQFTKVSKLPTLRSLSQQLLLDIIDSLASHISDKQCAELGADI
B7: Mothers against decapentaplegic homolog 4 (Homo sapiens), Q13485 (parent)
chain: B1 chain
partner: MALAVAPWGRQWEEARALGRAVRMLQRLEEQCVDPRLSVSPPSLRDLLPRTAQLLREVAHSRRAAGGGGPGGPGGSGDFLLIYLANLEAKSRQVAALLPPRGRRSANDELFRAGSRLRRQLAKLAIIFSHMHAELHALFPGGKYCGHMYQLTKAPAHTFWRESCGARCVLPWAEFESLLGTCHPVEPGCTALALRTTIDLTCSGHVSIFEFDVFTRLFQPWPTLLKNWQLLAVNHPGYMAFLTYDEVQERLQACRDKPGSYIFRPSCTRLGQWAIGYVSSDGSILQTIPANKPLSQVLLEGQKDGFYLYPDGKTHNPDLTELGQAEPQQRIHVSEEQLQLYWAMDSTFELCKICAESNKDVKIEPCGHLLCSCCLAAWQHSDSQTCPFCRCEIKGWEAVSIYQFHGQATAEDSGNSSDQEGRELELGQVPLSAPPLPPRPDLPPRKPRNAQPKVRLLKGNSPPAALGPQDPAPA

Variants of: B1
Settings: with irf2_human IRF2, P14316
With R361C the “effect of a mutation on the interaction” value was “with no effect”.

Variants of: B2
Settings: with fancg_human FANCG
With G386D the “effect of a mutation on the interaction” value was “with no effect”.

Variants of: B2
Settings: with fancg_human FANCG
Remark: another data set of the same source
In the case of D351H, the “effect of a mutation on the interaction” value is reported as “with no effect”.

Variants of: B2
Settings: with fancg_human FANCG
Remark: another data set of the same source
With R361H the “effect of a mutation on the interaction” value was “with no effect”.

Variants of: B2
Settings: with fancg_human FANCG
Remark: another data set of the same source
With R361C the “effect of a mutation on the interaction” value was “with no effect”.

Variants of: B3
Settings: with glis1_human GLIS1, Q8NBF1
In the case of R361H, the “effect of a mutation on the interaction” value is reported as “with no effect”.

Variants of: B3
Settings: with glis1_human GLIS1, Q8NBF1
Remark: another data set of the same source
With G386D the “effect of a mutation on the interaction” value was “with no effect”.

Variants of: B3
Settings: with glis1_human GLIS1, Q8NBF1
Remark: another data set of the same source
For D351H, the “effect of a mutation on the interaction” value was “with no effect”.

Variants of: B4
Settings: with erg_human ERG
R361C was tested, and the “effect of a mutation on the interaction” value was “with no effect”.

Variants of: B4
Settings: with erg_human ERG
Remark: another data set of the same source
For R361H, the “effect of a mutation on the interaction” value was “with no effect”.

Variants of: B4
Settings: with erg_human ERG
Remark: another data set of the same source
For D351H, the “effect of a mutation on the interaction” value was “with no effect”.

Variants of: B4
Settings: with erg_human ERG
Remark: another data set of the same source
With G386D the “effect of a mutation on the interaction” value was “with no effect”.

Variants of: B5
Settings: with cnkr1_human CNKSR1, Q969H4
With D351H the “effect of a mutation on the interaction” value was “with no effect”.

Variants of: B5
Settings: with cnkr1_human CNKSR1, Q969H4
Remark: another data set of the same source
R361C was tested, and the “effect of a mutation on the interaction” value was “with no effect”.

Variants of: B5
Settings: with cnkr1_human CNKSR1, Q969H4
Remark: another data set of the same source
R361H was tested, and the “effect of a mutation on the interaction” value was “with no effect”.

Variants of: B5
Settings: with cnkr1_human CNKSR1, Q969H4
Remark: another data set of the same source
G386D was tested, and the “effect of a mutation on the interaction” value was “with no effect”.

Variants of: B6
Settings: with lztr1_human LZTR1, Q8N653
In the case of G386D, the “effect of a mutation on the interaction” value is reported as “with no effect”.

Variants of: B6
Settings: with lztr1_human LZTR1, Q8N653
Remark: another data set of the same source
For R361H, the “effect of a mutation on the interaction” value was “with no effect”.

Variants of: B6
Settings: with lztr1_human LZTR1, Q8N653
Remark: another data set of the same source
R361H was tested, and the “effect of a mutation on the interaction” value was “decreasing interaction strength”. For R361C, the “effect of a mutation on the interaction” value was “decreasing interaction strength”.

Variants of: B6
Settings: with lztr1_human LZTR1, Q8N653
Remark: another data set of the same source
With R361C the “effect of a mutation on the interaction” value was “with no effect”.

Variants of: B6
Settings: with lztr1_human LZTR1, Q8N653
Remark: another data set of the same source
In the case of D351H, the “effect of a mutation on the interaction” value is reported as “with no effect”.

Variants of: B7
Settings: with cblc_human CBLC
G386D was tested, and the “effect of a mutation on the interaction” value was “with no effect”.
